Positions count from the first letter of the chain named. Like-named read-outs stand apart in the source and are kept apart here.
T1: AE.A244 V1/V2 Tags N156QN160Q (HIV-1)
T1 chain: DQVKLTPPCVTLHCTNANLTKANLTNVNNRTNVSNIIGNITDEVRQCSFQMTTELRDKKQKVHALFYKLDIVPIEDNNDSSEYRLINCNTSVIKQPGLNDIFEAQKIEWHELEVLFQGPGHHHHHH

T2: gp70 C.1086 V1/V2 (HIV-1 V1V2 on murine leukemia virus gp70)
T2 construct: also called C.gp70 1086C V1V2; C.1086gp70V1V2
T2 chain: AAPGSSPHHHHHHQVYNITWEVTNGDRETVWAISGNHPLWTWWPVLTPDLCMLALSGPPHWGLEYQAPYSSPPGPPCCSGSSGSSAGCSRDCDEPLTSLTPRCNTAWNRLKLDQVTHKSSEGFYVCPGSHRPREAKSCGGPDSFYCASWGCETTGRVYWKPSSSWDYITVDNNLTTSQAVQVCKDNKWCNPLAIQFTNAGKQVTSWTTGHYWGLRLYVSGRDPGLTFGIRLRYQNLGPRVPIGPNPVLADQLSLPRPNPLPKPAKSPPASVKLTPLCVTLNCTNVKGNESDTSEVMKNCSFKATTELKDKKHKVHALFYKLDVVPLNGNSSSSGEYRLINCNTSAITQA

B1: PG9 reverted unmutated ancestor antibody (antibody, V domains shown)
VH: QVQLVESGGGVVQPGRSLRLSCAASGFTFSSYGMHWVRQAPGKGLEWVAVISYDGSNKYYADSVKGRFTISRDNSKNTLYLQMNSLRAEDTAVYYCAREAGGPDYRNGYNYYDFWSGYYNYYYMDVWGKGTTVTVSS
VL: QSALTQPASVSGSPGQSITISCTGTSSDVGSYNLVSWYQQHPGKAPKLMIYEVSKRPSGVSNRFSGSKSGNTASLTISGLQAEDEADYYCCSLTSTRRWVFGGGTKLTVL
notes: also called PG9 RUA; PG9_RUA
B2: PG16 reverted unmutated ancestor antibody (antibody, V domains shown)
VH: B1 VH with D104I, Y105W, R106H, N107D, G108D, Y109V, N110K, W115N, S116D, N120Y
VL: B1 VL with S95D, T96R, R97S, R98H, W99R, V100I
notes: also called PG16 RUA; PG16_RUA
B3: CH58 reverted unmutated ancestor antibody (antibody, V domains shown)
VH: EVQLVQSGAEVKKPGESLKISCKGSGYSFTSYWIGWVRQMPGKGLEWMGIIYPGDSDTRYSPSFQGQVTISADKSISTAYLQWSSLKASDTAMYYCARLGGRYYYDSSGYYYFDYWGQGTLVTVSS
VL: NFMLTQPHSVSESPGKTVTISCTRSSGSIASNYVQWYQQRPGSSPTTVIYEDNQRPSGVPDRFSGSIDSSSNSASLTISGLKTEDEADYYCQSYDSSSWVFGGGTKLTVL
notes: also called CH58 RUA; CH58_RUA

How the values were obtained:
[1] = target: T1, AE.A244 V1/V2 Tags N156QN160Q; assay: ELISA; markers as in the legend printed on D00157
[2] = target: T2, gp70 C.1086 V1/V2; assay: ELISA
[3] = target: T2, gp70 C.1086 V1/V2; assay: ELISA
[4] = target: Env of AE.92TH023 virus (HIV-1); assay: cell-based or functional assay
[5] = target: Env of AE.CM244 virus (HIV-1); assay: cell-based or functional assay
[6] = target: Env of 92TH023 K169Q virus (HIV-1); assay: cell-based or functional assay
[7] = target: Env of TH023.6.I181L virus (HIV-1); assay: cell-based or functional assay
[8] = target: Env of 703357.c02 virus (HIV-1); assay: cell-based or functional assay
[9] = target: Env of 703357.2.Q169K virus (HIV-1); assay: cell-based or functional assay
[10] = target: Env of 703357.2.Q169KR170Q virus (HIV-1); assay: cell-based or functional assay
[11] = target: Env of 703357.2.I181L virus (HIV-1); assay: cell-based or functional assay
[12] = target: Env of 703357.2.Q169KI181L virus (HIV-1); assay: cell-based or functional assay
[13] = target: Env of 703357.2.Q169KR170QI181L virus (HIV-1); assay: cell-based or functional assay
[14] = target: Env of 427299.c12 virus (HIV-1); assay: cell-based or functional assay
[15] = target: Env of 427299.c12.Q169K virus (HIV-1); assay: cell-based or functional assay
[16] = target: Env of 427299.c12.H81L virus (HIV-1); assay: cell-based or functional assay
[17] = target: Env of 427299.c12.KL.Q169K/I181L virus (HIV-1); assay: cell-based or functional assay
[18] = target: Env of CM244NW.4.K169Q virus (HIV-1); assay: cell-based or functional assay
[19] = target: Env of CM244NW.6.I181L virus (HIV-1); assay: cell-based or functional assay

Binder | binding result [1] | EC50 [2] [nM] | EC50 [3] [nM] | ID50 assayed in TZM-bl cells, TH023.6 [4] [µg/mL] | ID50 assayed in TZM-bl cells, CM244.ec1 [5] [µg/mL] | ID50 assayed in TZM-bl cells, TH023.6.K169Q [6] [µg/mL] | ID50 assayed in TZM-bl cells, TH023.6.I181L [7] [µg/mL] | ID50 assayed in TZM-bl cells, 703357.c02 [8] [µg/mL] | ID50 assayed in TZM-bl cells, 703357.2.Q169K [9] [µg/mL] | ID50 assayed in TZM-bl cells, 703357.2.Q169KR170Q [10] [µg/mL] | ID50 assayed in TZM-bl cells, 703357.2.I181L [11] [µg/mL] | ID50 assayed in TZM-bl cells, 703357.2.Q169KI181L [12] [µg/mL] | ID50 assayed in TZM-bl cells, 703357.2.Q169KR170QI181L [13] [µg/mL] | ID50 assayed in TZM-bl cells, 427299.c12 [14] [µg/mL] | ID50 assayed in TZM-bl cells, 427299.c12.Q169K [15] [µg/mL] | ID50 assayed in TZM-bl cells, 427299.c12.H81L [16] [µg/mL] | ID50 assayed in TZM-bl cells, 427299.c12.KL.Q169K/I181L [17] [µg/mL] | ID50 assayed in TZM-bl cells, CM244NW.4.K169Q [18] [µg/mL] | ID50 assayed in TZM-bl cells, CM244NW.6.I181L [19] [µg/mL]
B1 | no binding (tested: 100 ug/ml) | – | – | – | – | – | – | – | – | – | – | – | – | – | – | – | – | – | –
B2 | no binding (tested: 100 ug/ml) | – | – | – | – | – | – | – | – | – | – | – | – | – | – | – | – | – | –
B3 | – | > 66.7 | > 66.7 | > 50 | > 50 | > 50 | > 50 | > 50 | > 50 | > 50 | > 50 | > 50 | > 50 | > 50 | > 50 | > 50 | > 50 | > 50 | > 50
